The source of these data is publication PMC11522559.

Assay [1] concerns the target Alexa647-labeled microtubules (porcine brain tubulin), antiparallel overlaps (porcine) (UniProt P02550).
For assay [2] the target is unchanged. This is another data set of the same source.

Sequence of UniProt P02550 (P02550 whole entry): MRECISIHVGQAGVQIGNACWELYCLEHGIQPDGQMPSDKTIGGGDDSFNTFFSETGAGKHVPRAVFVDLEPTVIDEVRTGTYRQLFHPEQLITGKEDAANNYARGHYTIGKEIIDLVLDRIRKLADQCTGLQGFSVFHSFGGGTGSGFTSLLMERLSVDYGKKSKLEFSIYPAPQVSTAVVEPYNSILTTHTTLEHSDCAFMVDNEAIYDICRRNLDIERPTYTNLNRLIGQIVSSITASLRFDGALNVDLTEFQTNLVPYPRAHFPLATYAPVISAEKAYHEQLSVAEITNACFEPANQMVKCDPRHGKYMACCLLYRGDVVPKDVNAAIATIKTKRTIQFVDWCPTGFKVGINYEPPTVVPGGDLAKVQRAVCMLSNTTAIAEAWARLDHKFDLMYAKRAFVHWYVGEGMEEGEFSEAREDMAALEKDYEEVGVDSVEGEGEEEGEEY

As to “CDK1-phosphorylated PRC1-Alexa546 (human PRC1 isoform 2) (from UniProt O43663-2 1-576) (natural protein)”, in assay [1], the fold decrease of affinity against unphosphorylated PRC1 is above 10 fold. Take “PLK1-phosphorylated PRC1-Alexa546 (human PRC1 isoform 2) (from UniProt O43663-4 1-606) (natural protein)”: the Kd in assay [2] amounted to 9.6 nM.

Usually Kd stands for the constant that tells how readily two partners part at equilibrium. Read a high Kd as lower affinity.
